Measurements taken from the Human Domainome abundance scans (Beltran et al. 2025).

B1: Calcium-binding protein 2, residues 155 to 219; numbered along this chain, Q9NPB3 (parent)
chain: RELRDAFREFDTNGDGRISVGELRAALKALLGERLSQREVDEILQDVDLNGDGLVDFEEFVRMMS

Variants of: B1
Experiment: abundance fitness (aPCA) (normalised: wild type 0, dead -1); higher = more abundant; growth selection in yeast, the domain comes from the species named
Conditions: Homo sapiens

Abundance fitness, by site and new letter:
R62: S -0.065, Q -0.145, W -0.102, N -0.111, L -0.21, V -0.074, G -0.025, E -0.307, T -0.182, H -0.233, F -0.218, D 0.077, C -0.124, Y -0.2, P -0.37
V61: D 0.009, R -0.04, I -0.149, Q -0.051, S 0.128, P -0.445, K -0.029, W -0.114, H 0.011, Y -0.013, G -0.005, C -0.014, E 0.012, F -0.134, T -0.044, M -0.325, L -0.012, A -0.054
M64: H 0.098, N 0.171, T 0.015, C 0.067, Y 0.209, W 0.104, R 0.109, I -0.014, V 0.157, K -0.075, L -0.025, S 0.174, E 0.301, G 0.008, D -0.255, P -0.555, Q -0.041
E58: M -0.202, T -0.088, S -0.019, Q -0.102, Y -0.43, R -0.117, K 0.102, L -0.008, P -0.025, V -0.105, W -0.431, H -0.008
F60: R -0.798, E -0.672, I 0.116, M -0.116, P -0.896, D -0.71, H -0.875, L -0.228, C -0.176, K -1.08, W -0.012, V -0.278, A -0.471, T -0.306, Q -0.899, S -0.326
E59: M 0.059, K -0.092, G -0.171, D -0.405, S -0.075, F -0.146, W -0.259, N -0.282, V 0.083, Y -0.157, P -0.1, A -0.072, I -0.051, Q -0.025, T 0.088, C 0.033, H -0.164, R -0.089, L 0.071
M63: F -0.081, D -0.323, G -0.16, W -0.003, N 0.057, R -0.404, V 0.047, Q -0.035, A -0.048, S -0.158, Y -0.108, T 0.102, P -0.614, K -0.459, E -0.721, H 0.05, C -0.058, L 0.101
